# Results reported in US12383631B2, “Immune antigen specific IL-18 immunocytokines and uses thereof” (Bright Peak Therapeutics AG, priority 2022, dated 2025).
# Positions count from the first letter of the chain named. Numbers in names are those of the source.
# B1: C143: IL-18 polypeptide: V11I, C38A, K53A, C76A, C127A (protein)
# chain: YFGKLESKLSIIRNLNDQVLFIDQGNRPLFEDMTDSDARDNAPRTIFIISMYADSQPRGMAVTISVKCEKISTLSAENKIISFKEMNPPDNIKDTKSDIIFFQRSVPGHDNKMQFESSSYEGYFLAAEKERDLFKLILKKEDELGDRSIMFTVQNED
# B2: C144: IL-18 polypeptide: V11I, C38A, K53A, T63A, C76A, C127A (protein)
# chain: B1 chain with T63A
# B3: C145: IL-18 polypeptide: V11I, C38A, K53A, S55A, C76A, C127A (protein)
# chain: B1 chain with S55A
# B4: SEQ ID NO: 68: IL-18 polypeptide: V11I, C38A, M51G, K53A, C76A, C127A (protein)
# chain: B1 chain with M51G
# B5: C147: IL-18 polypeptide: V11I, C38A, K53A, D54A, C76A, C127A (protein)
# chain: B1 chain with D54A
# B6: C148: IL-18 polypeptide: F2A, V11I, C38A, K53A, C76A, C127A (protein)
# chain: B1 chain with F2A
# B7: C149: IL-18 polypeptide: V11I, E31A, C38A, K53A, C76A, C127A (protein)
# chain: B1 chain with E31A
# B8: C150: IL-18 polypeptide: V11I, T34A, C38A, K53A, C76A, C127A (protein)
# chain: B1 chain with T34A
# B9: C151: IL-18 polypeptide: V11I, D35A, C38A, K53A, C76A, C127A (protein)
# chain: B1 chain with D35A
# B10: C152: IL-18 polypeptide: V11I, S36A, C38A, K53A, C76A, C127A (protein)
# chain: B1 chain with S36A
# B11: C153: IL-18 polypeptide: V11I, D37A, C38A, K53A, C76A, C127A (protein)
# chain: B1 chain with D37A
# B12: C154: IL-18 polypeptide: V11I, E31A, D37A, C38A, K53A, C76A, C127A (protein)
# chain: B1 chain with E31A, D37A
# B13: C155: IL-18 polypeptide: V11I, C38A, D40A, K53A, C76A, C127A (protein)
# chain: B1 chain with D40A
# B14: C156: IL-18 polypeptide: V11I, C38A, N41A, K53A, C76A, C127A (protein)
# chain: B1 chain with N41A
# B15: C157: IL-18 polypeptide: V11I, C38A, K53A, C76A, C127A, D132A (protein)
# chain: B1 chain with D132A
# B16: C158: IL-18 polypeptide: V11I, C38A, K53A, C76A, G108A, C127A (protein)
# chain: B1 chain with G108A
# B17: C159: IL-18 polypeptide: V11I, C38A, K53A, C76A, H109A, C127A (protein)
# chain: B1 chain with H109A
# B18: C160: IL-18 polypeptide: V11I, C38A, K53A, C76A, D110A, C127A (protein)
# chain: B1 chain with D110A
# B19: C161: IL-18 polypeptide: K8R, V11I, C38A, C76A, Q103E, C127A (protein)
# chain: B1 chain with K8R, A53K, Q103E
# B20: C162: IL-18 polypeptide: K8E, V11I, C38A, C76A, Q103R, C127A (protein)
# chain: B1 chain with K8E, A53K, Q103R
# B21: C163: IL-18 polypeptide: V11I, C38A, C76A, Q103K, C127A (protein)
# chain: B1 chain with A53K, Q103K
# B22: C164: IL-18 polypeptide: V11I, C38A, S55H, C76A, C127A (protein)
# chain: B1 chain with A53K, S55H
# B23: C165: IL-18 polypeptide: V11I, C38A, S55R, C76A, C127A (protein)
# chain: B1 chain with A53K, S55R
# B24: C166: IL-18 polypeptide: V11I, C38A, S55T, C76A, C127A (protein)
# chain: B1 chain with A53K, S55T
# B25: C167: IL-18 polypeptide: V11I, C38A, C76A, S105I, C127A (protein)
# chain: B1 chain with A53K, S105I
# B26: C168: IL-18 polypeptide: V11I, C38A, C76A, S105K, C127A (protein)
# chain: B1 chain with A53K, S105K
# B27: C177: IL-18 polypeptide: E6K, V11I, C38A, I49R, K53A, T63A, C76A, C127A (protein)
# chain: B1 chain with E6K, I49R, T63A
# B28: C178: IL-18 polypeptide: E6K, V11I, C38A, K53A, T63A, C76A, Q103R, C127A (protein)
# chain: B1 chain with E6K, T63A, Q103R
# Target: T1, human IL-18 binding protein isoform a (IL-18BPa) (Homo sapiens, UniProt O95998)
# T1 sequence (O95998 31-194): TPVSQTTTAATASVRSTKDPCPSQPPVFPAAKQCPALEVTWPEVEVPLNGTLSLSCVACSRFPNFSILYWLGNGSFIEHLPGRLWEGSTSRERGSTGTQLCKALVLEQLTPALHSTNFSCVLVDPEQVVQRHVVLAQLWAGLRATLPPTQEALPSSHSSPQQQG
# Assay: IL-18 Binding Protein inhibition cellular assay in NK-92 cells (Example 4 / 17C)
# Type: cell-based
# Conditions: inhibition by IL-18BP of IFNγ stimulation in NK92 cells
# Procedure: The NK cell line NK-92 derived from a patient with lymphoma (ATCC® CRL-2407™) is cultured in aMEM medium supplemented with 20% FCS-Glutamax, 25 μM β-mercaptoethanol, and 100 IU/mL of recombinant human IL-2.
# On the day of experiment, cells are harvested and washed with aMEM medium without IL-2 and containing 1 ng/mL of recombinant human IL-12. After counting, the cells are seeded at 100,000 cells/well in a 384 well titer plate and incubated at 37° C./5% CO2. Sixteen 2-fold serial dilutions of Fc-fused human IL-18 binding protein isoform a (IL-18BPa) are prepared in aMEM medium. 1 ng/mL of IL-12 containing 2 nM of each modified IL-18 polypeptide variant is added to the NK-92 cells. The final IL-18 analyte concentration is 1 nM, and the final IL-18BPa concentration ranged from 566 nM to 17 pM.
# After incubating the cells for 16-20 hr at 37° C./5% CO2, 5 μL of the supernatant is carefully transferred to a 384 microwell OptiPlate. IFNγ levels are measured using a human IFNγ AlphaLISA Assay Kit. Briefly, 10 μL of 2.5× AlphaLISA anti-IFNγ acceptor beads and biotinylated antibody anti-IFNγ mix are added to 5 μL of NK-92 supernatants. The mixtures are incubated for 1 hr at room temperature with shaking. Under subdued light, 2.5 μL of 2×SA donor beads are pipetted in each well and incubated for 30 min at room temperature with shaking. AlphaLISA signals are then measured on an EnSpire™ plate reader using 680 nm and 615 nm as excitation and emission wavelengths, respectively. Half maximal inhibitory concentrations (IC50) are calculated based on a variable slope and four parameter analysis using GraphPad PRISM software.
# 17C—IFNγ Stimulation and IL-18BP Inhibition Assay—The experiments described in Example 4 for determination of IFNg stimulation in NK92 cells (and inhibition by IL-18 BP) were performed substantially as described on modified IL-18 polypeptides in order to assess their activities and their suitability for incorporation into immunocytokine compositions.
row,Molecule,IC50 [nM]
1,B1,1.62
2,B2,7.52
3,B3,10.2
4,B4,733
5,B5,47.6
6,B6,5.05
7,B7,1.17
8,B8,21.3
9,B9,3.62
10,B10,7.85
11,B11,2.22
12,B12,3.71
13,B13,3.23
14,B14,0.681
15,B15,6.08
16,B16,3.98
17,B17,1.81
18,B18,3.18
19,B19,1.07
20,B20,7.29
21,B21,0.823
22,B22,0.456
23,B23,0.885
24,B24,0.44
25,B25,0.809
26,B26,0.176

# Target: T2, human IL-18BP (Homo sapiens, UniProt O95998)
# T2 sequence (O95998 31-194): T1 sequence (O95998 31-194)
# Assay: IL-18BP binding AlphaLISA assay (Example 4 / 17B)
# Conditions: IL-18 binding protein AlphaLISA
# Procedure: A human IL-18BP AlphaLISA Assay Kit is used to determine the binding affinity of each immunocytokine and IL-18 variant for IL-18BP, which detected the presence of free form IL-18BP.
# Sixteen three-fold serial dilutions of IL-18 analytes are prepared in aMEM medium supplemented with 20% FCS, Glutamax, and 25 μM β-mercaptoethanol in the presence of 5 ng/mL of His-tagged human IL-18BP. Final IL-18 analytes concentration range from 2778 nM to 0.2 pM.
# After 1 hr incubation at room temperature, free IL-18BP levels are measured using a […]. In a 384 well OPTIplate, 5 μL of 5× Anti-IL-18BP acceptor beads are added to 7.5 μL of an IL-18/IL-18BP mix. After 30 min incubation at room temperature with shaking, 5 μL of biotinylated Anti-IL-18BP antibodies are added to each well. The plate is incubated further for 1 hr at room temperature. Under subdued light, 12.5 μL of 2× streptavidin (SA) donor beads are pipetted into each well, and the wells are incubated with shaking for an additional 30 min at room temperature. The AlphaLisa signal is then measured on an Enspire plate reader with 680 and 615 nm as excitation and emission wavelengths, respectively. The dissociation constant (KD) is calculated based on a variable slope, four parameter analysis using GraphPad PRISM software.
# 17B—IL-18 BP AlphaLISA assay—An IL-18 binding protein AlphaLISA experiment substantially as described in Example 4 was performed on IL-18 polypeptide which can be incorporated into immunocytokine compositions as provided herein to assess ability to bind to IL-18BP.
row,Molecule,Kd [nM]
1,B27,> 2800
2,B28,> 2800
